Target: CXL10_HUMAN (human) (UniProt P02778)
Assay: cell-based or functional assay

CXL10_HUMAN (human), sequence (P02778 22-98 limits assumed): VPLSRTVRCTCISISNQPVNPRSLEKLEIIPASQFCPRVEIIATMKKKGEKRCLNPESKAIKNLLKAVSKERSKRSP

Work on “EVA4_RHISA protein (from UniProt P0C8E9 24-127)” yielded a cell migration of 20 µM.
